According to patent publication US20250313602A1:
Where “and” joins values, the source holds several entries; their conditions need not be identical. Equal entries are not always repeated.

Target: FcRn
Assay: BLI

Kd: 2.83 nM and 1.27 nM
Substance: Herceptin
